Results taken from patent US20040126784.

B1: GST-CNK (wild type CNK fused to GST, produced in E. coli) (protein)
chain: MLAGLPTSDPGRLITDPRSGRTYLKGRLLGKGGFARCYEATDTETGSAYAVKVIPQSRVAKPHQREKILNEIELHRDLQHRHIVRFSHHFEDADNIYIFLELCSRKSLAHIWKARHTLLEPEVRYYLRQILSGLKYLHQRGILHRDLKLGNFFITENMELKVGDFGLAARLEPPEQRKKTICGTPNYVAPEVLLRQGHGPEADVWSLGCVMYTLLCGSPPFETADLKETYRCIKQVHYTLPASLSLPARQLLAAILRASPRDRPSIDQILRHDFFTKGYTPDRLPISSCVTVPDLTPPNPARSLFAKVTKSLFGRKKKSKNHAQERDEVSGLVSGLMRTSVGHQDARPEAPAASGPAPVSLVETAPEDSSPRGTLASSGDGFEEGLTVATVVESALCALRNCIAFMPPAEQNPAPLAQPEPLVWVSKWVDYSNKFGFGYQLSSRRVAVLFNDGTHMALSANRKTVHYNPTSTKHFSFSVGAVPRALQPQLGILRYFASYMEQHLMKGGDLPSVEEVEVPAPPLLLQWVKTDQALLMLFSDGTVQVNFYGDHTKLILSGWEPLLVTFVARNRSACTYLASHLRQLGCSPDLRQRLRYALRLLRDRSPA
B2: GST-CNK D146A mutant (protein)
chain: MLAGLPTSDPGRLITDPRSGRTYLKGRLLGKGGFARCYEATDTETGSAYAVKVIPQSRVAKPHQREKILNEIELHRDLQHRHIVRFSHHFEDADNIYIFLELCSRKSLAHIWKARHTLLEPEVRYYLRQILSGLKYLHQRGILHRALKLGNFFITENMELKVGDFGLAARLEPPEQRKKTICGTPNYVAPEVLLRQGHGPEADVWSLGCVMYTLLCGSPPFETADLKETYRCIKQVHYTLPASLSLPARQLLAAILRASPRDRPSIDQILRHDFFTKGYTPDRLPISSCVTVPDLTPPNPARSLFAKVTKSLFGRKKKSKNHAQERDEVSGLVSGLMRTSVGHQDARPEAPAASGPAPVSLVETAPEDSSPRGTLASSGDGFEEGLTVATVVESALCALRNCIAFMPPAEQNPAPLAQPEPLVWVSKWVDYSNKFGFGYQLSSRRVAVLFNDGTHMALSANRKTVHYNPTSTKHFSFSVGAVPRALQPQLGILRYFASYMEQHLMKGGDLPSVEEVEVPAPPLLLQWVKTDQALLMLFSDGTVQVNFYGDHTKLILSGWEPLLVTFVARNRSACTYLASHLRQLGCSPDLRQRLRYALRLLRDRSPA

How the values were obtained:
[1] = biological target: p53, P04637
Chain of p53, P04637 (P04637 whole entry, looked up): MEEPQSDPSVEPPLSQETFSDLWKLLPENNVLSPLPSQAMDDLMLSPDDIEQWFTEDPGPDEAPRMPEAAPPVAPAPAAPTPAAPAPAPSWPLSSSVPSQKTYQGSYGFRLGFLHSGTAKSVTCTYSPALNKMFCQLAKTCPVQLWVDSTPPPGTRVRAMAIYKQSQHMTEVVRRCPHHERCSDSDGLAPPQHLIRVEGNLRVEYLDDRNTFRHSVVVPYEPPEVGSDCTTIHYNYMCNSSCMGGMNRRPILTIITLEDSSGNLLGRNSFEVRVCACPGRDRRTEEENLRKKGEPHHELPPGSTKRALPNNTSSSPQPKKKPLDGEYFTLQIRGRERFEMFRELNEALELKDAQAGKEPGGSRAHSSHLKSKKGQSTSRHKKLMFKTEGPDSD

[2] = biological target: maltose binding protein (MBP)

| Protein | kinase activity (32P-ATP kinase reaction) [1] | kinase activity (32P-ATP kinase reaction) [2] |
| --- | --- | --- |
| B1 | Wild type GST-CNK phosphorylated p53, maltose binding protein (MBP) and also exhibited autophosphorylation activity. | Wild type GST-CNK phosphorylated p53, maltose binding protein (MBP) and also exhibited autophosphorylation activity. |
| B2 | The GST-CNK D146A mutant did not exhibit kinase activity. | The GST-CNK D146A mutant did not exhibit kinase activity. |
